Columns and labels:
[1] = molecular target: T1, Flag-tagged TBC1 Domain Family Member 25 (TBC1D25) (UniProt Q3MII6-1 1-688); assay: pull-down; GST-HA-tagged protein from E. coli extracts held on glutathione-sepharose 4B beads, washed with PBS, incubated 4 h at 4 C with immunopurified Flag-tagged protein; washed with NaCl wash buffer; Western blot; GST tag as negative control; details: both partners purified
T1 construct: Vector pcDNA5-flag or pHAGE-3xflag; The reverse primer carries the stop codon, so the tag is probably N-terminal; also called Flag-TBC1D25; OATL1; source: HEK-293T, transfected, in lysate (co-IP); immunopurified and eluted with FLAG peptide (GST pull-down)
T1 sequence (looked up): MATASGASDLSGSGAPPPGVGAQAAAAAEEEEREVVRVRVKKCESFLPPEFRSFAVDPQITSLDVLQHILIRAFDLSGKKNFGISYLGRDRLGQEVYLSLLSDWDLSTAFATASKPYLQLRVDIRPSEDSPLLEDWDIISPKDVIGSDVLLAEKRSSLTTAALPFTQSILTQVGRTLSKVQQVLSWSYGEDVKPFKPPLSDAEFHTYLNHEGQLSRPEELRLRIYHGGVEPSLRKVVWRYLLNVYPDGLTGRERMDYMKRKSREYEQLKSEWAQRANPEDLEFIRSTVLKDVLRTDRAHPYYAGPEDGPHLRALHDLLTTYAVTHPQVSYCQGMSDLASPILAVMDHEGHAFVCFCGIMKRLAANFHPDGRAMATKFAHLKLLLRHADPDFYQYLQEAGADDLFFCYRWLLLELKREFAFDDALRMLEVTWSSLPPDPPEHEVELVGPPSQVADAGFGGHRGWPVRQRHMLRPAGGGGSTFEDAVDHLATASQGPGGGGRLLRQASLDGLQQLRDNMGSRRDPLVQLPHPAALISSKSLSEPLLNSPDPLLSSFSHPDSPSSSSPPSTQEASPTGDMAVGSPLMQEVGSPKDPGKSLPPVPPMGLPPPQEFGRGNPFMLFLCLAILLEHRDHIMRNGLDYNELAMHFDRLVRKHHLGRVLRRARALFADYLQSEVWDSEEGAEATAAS

[2] = molecular target: T2, GST-HA-TBC1D25 (UniProt Q3MII6-1 1-688); assay: as above; details: both partners purified
T2 construct: also called OATL1
T2 sequence (looked up): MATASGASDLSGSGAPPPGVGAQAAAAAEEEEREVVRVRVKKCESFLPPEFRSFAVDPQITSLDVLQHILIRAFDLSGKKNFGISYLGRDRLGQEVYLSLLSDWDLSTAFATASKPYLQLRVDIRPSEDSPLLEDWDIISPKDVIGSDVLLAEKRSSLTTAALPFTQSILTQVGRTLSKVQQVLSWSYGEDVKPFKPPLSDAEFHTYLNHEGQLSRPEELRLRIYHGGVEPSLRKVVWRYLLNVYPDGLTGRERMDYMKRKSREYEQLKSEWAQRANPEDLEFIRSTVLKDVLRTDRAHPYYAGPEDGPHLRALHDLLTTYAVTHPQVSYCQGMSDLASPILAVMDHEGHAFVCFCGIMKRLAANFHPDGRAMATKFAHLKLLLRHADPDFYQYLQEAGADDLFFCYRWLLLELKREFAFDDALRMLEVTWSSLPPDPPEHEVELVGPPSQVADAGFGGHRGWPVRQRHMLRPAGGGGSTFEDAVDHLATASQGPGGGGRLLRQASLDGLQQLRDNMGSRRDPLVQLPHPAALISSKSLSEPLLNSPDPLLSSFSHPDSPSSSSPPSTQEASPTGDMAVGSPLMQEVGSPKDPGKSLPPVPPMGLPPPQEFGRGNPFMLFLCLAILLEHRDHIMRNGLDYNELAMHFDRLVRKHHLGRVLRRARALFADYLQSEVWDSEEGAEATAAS

B1: GST-HA-TAK1 (enzyme, UniProt O43318-2 1-579, looked up)
chain: MSTASAASSSSSSSAGEMIEAPSQVLNFEEIDYKEIEVEEVVGRGAFGVVCKAKWRAKDVAIKQIESESERKAFIVELRQLSRVNHPNIVKLYGACLNPVCLVMEYAEGGSLYNVLHGAEPLPYYTAAHAMSWCLQCSQGVAYLHSMQPKALIHRDLKPPNLLLVAGGTVLKICDFGTACDIQTHMTNNKGSAAWMAPEVFEGSNYSEKCDVFSWGIILWEVITRRKPFDEIGGPAFRIMWAVHNGTRPPLIKNLPKPIESLMTRCWSKDPSQRPSMEEIVKIMTHLMRYFPGADEPLQYPCQYSDEGQSNSATSTGSFMDIASTNTSNKSDTNMEQVPATNDTIKRLESKLLKNQAKQQSESGRLSLGASRGSSVESLPPTSEGKRMSADMSEIEARIAATTGNGQPRRRSIQDLTVTGTEPGQVSSRSSSPSVRMITTSGPTSEKPTRSHPWTPDDSTDTNGSDNSIPMAYLTLDHQLQPLAPCPNSKESMAVFEQHCKMAQEYMKVQTEIALLLQRKQELVAELDQDEKDQQNTSRLVQEHKKLLDENKSLSTYYQQCKKQLEVIRSQQQKRQGTS
notes: also called pGEX-4T-1-GST-HA-TAK1; MAP3K7
B1: binds [1].

B2: Flag-TAK1, immunopurified (enzyme, UniProt O43318-2 1-579, looked up)
chain: MSTASAASSSSSSSAGEMIEAPSQVLNFEEIDYKEIEVEEVVGRGAFGVVCKAKWRAKDVAIKQIESESERKAFIVELRQLSRVNHPNIVKLYGACLNPVCLVMEYAEGGSLYNVLHGAEPLPYYTAAHAMSWCLQCSQGVAYLHSMQPKALIHRDLKPPNLLLVAGGTVLKICDFGTACDIQTHMTNNKGSAAWMAPEVFEGSNYSEKCDVFSWGIILWEVITRRKPFDEIGGPAFRIMWAVHNGTRPPLIKNLPKPIESLMTRCWSKDPSQRPSMEEIVKIMTHLMRYFPGADEPLQYPCQYSDEGQSNSATSTGSFMDIASTNTSNKSDTNMEQVPATNDTIKRLESKLLKNQAKQQSESGRLSLGASRGSSVESLPPTSEGKRMSADMSEIEARIAATTGNGQPRRRSIQDLTVTGTEPGQVSSRSSSPSVRMITTSGPTSEKPTRSHPWTPDDSTDTNGSDNSIPMAYLTLDHQLQPLAPCPNSKESMAVFEQHCKMAQEYMKVQTEIALLLQRKQELVAELDQDEKDQQNTSRLVQEHKKLLDENKSLSTYYQQCKKQLEVIRSQQQKRQGTS
notes: Probably expressed in HEK-293T cells like the other Flag constructs; also called MAP3K7; source: immunopurified, eluted with FLAG peptide
B2: binds [2].

From PMC7085222, “TBC1D25 Regulates Cardiac Remodeling Through TAK1 Signaling Pathway” (International Journal of Biological Sciences, 2020)
